± gives the uncertainty stated by the source.
Assay: protein stability index of a GFP-peptide fusion (yeast GPS) (PSI 1-4); higher = more stable; sorted into four equal gates, so the index is relative within each strain
Outline: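 Tiled 17-residue yeast protein peptides were fused downstream of GFP in a plasmid that also expresses Cherry, and the pooled library was carried in yeast. Mid-log cultures in leucine-free medium were sorted into four equal gates by GFP/Cherry fluorescence ratio, and plasmids from each gate were PCR-amplified and Illumina-sequenced, with reads assigned to strains by barcodes. The protein stability index for each peptide was each gate's read frequency times its gate number, summed.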

Row | Sequence | protein stability index (doa10∆) | protein stability index (pdr5∆) | protein stability index (ubr1∆) | protein stability index (san1∆)
1 | IYSPEGLRLDGRRWNEL [SKI6] | 1.42 ± 0.16 | 1.77 ± 0.19 |  | 
2 | SGYGKRKGTREARLPSQ [RPL19A] |  | 3.29 ± 0.28 | 3.49 ± 0.26 | 
3 | IGKMYDEYLGSHTDQPA [NNF1] | 3.37 ± 0.16 | 2.9 ± 0.17 | 3.28 ± 0.086 | 
4 | IIFQQLLFWTDPRNLVN [YCG1] | 2.04 ± 0.082 | 2.35 ± 0.067 | 2.13 ± 0.11 | 3.1 ± 0.059
5 | FLKEKDTVAELQAQLDY [FAS2] | 2.88 ± 0.091 | 3.07 ± 0.11 | 3.02 ± 0.067 | 3.15 ± 0.051
6 | FGPKKENRKKDESDSEN [YLR335W/NUP2] | 3.04 ± 0.14 | 3.19 ± 0.086 | 3.42 ± 0.091 | 2.62 ± 0.079
7 | LMTFNAETKSYDSRGVG [YLR335W/NUP2] | 2.19 ± 0.063 | 2.65 ± 0.059 | 2.71 ± 0.048 | 2.74 ± 0.054
8 | DFQPTELFDILSTSEDV [IRR1] | 3.04 ± 0.11 | 2.42 ± 0.1 | 3.08 ± 0.081 | 2.82 ± 0.074
9 | VMLKGIVTALLESDVNI [SRP54] | 1.3 ± 0.054 | 1.22 ± 0.067 | 1.16 ± 0.066 | 1.18 ± 0.14
10 | KAKRQINSGTNSANGSS [SSN3] | 2.52 ± 0.057 | 2.68 ± 0.058 | 2.91 ± 0.046 | 2.92 ± 0.057
11 | SSLMNGLGYVFEFQYLT [SRB5] | 2.25 ± 0.095 | 1.83 ± 0.085 | 3.19 ± 0.073 | 1.64 ± 0.084
12 | RVAASFSQEALQYVVER [FAS1] | 1.06 ± 0.091 | 1.19 ± 0.11 | 1.14 ± 0.089 | 
13 | MKVKADRDESSPYAAML [RPS14A] | 3.37 ± 0.1 | 3.29 ± 0.065 | 3.27 ± 0.068 | 3.23 ± 0.048
14 | QDRLSDLIHKSEAFPSL [SMC4] | 3.31 ± 0.15 | 2.7 ± 0.11 | 3.03 ± 0.088 | 3.07 ± 0.077
15 | LAKPVFHVGFIAKIKKV [RPO21] | 1.21 ± 0.053 | 2.15 ± 0.067 | 2.02 ± 0.06 | 1.78 ± 0.073
16 | RRHRNPDLQFIVISLKN [SMC1] | 1.86 ± 0.041 | 1.83 ± 0.039 | 2.13 ± 0.027 | 1.73 ± 0.058
17 | LDDLQVILAKNENETRD [PGD1] | 3.27 ± 0.099 | 3.05 ± 0.08 | 3.38 ± 0.078 | 2.93 ± 0.14
18 | VYREVCAACHSLDRVAW [CYT1] | 3.36 ± 0.26 | 3.04 ± 0.12 | 2.86 ± 0.13 | 2.71 ± 0.17
19 | ATVVSTNHSAAASTPTT [PGD1] | 2.91 ± 0.047 | 3.12 ± 0.042 | 3 ± 0.037 | 2.98 ± 0.035
20 | KRKYLDIPIDEMTLPTS [SSN2] | 3.1 ± 0.24 | 2.81 ± 0.15 | 3.21 ± 0.23 | 2.77 ± 0.19
21 | DMQSSVDTGLQPQHPHY [YLR018C/POM34] | 2.56 ± 0.043 | 2.86 ± 0.039 | 2.956 ± 0.029 | 2.96 ± 0.036
22 | VVFRDPYKYRLREEIFI [RPL2A] | 2.47 ± 0.12 | 2.66 ± 0.098 | 2.81 ± 0.087 | 2.01 ± 0.088
23 | CILYDADESKMAKLNEC [RET1] | 2.28 ± 0.062 | 1.99 ± 0.06 | 1.76 ± 0.055 | 2.32 ± 0.1
24 | QQPQTNTAPGLGNTVST [YGR119C/NUP57] | 3.03 ± 0.097 | 3.34 ± 0.1 | 3.06 ± 0.058 | 3.04 ± 0.073
25 | KIRPWRTFRLNECVCTP [RPO31] | 1.31 ± 0.065 | 1.99 ± 0.064 | 1.24 ± 0.092 | 1.73 ± 0.18
26 | LSKLCVPVANQFINLAG [QCR7] | 1.98 ± 0.059 | 2.13 ± 0.071 | 1.94 ± 0.033 | 1.81 ± 0.058
27 | AEEIGVEHLLRDVRDQA [RPN8] | 3.2 ± 0.14 |  |  | 2.96 ± 0.15

Row | Sequence | protein stability index (doa10∆) | protein stability index (pdr5∆) | protein stability index (ubr1∆) | protein stability index (san1∆)
28 | PLDEIPVDVDFNLDLDD [REC8] | 2.7 ± 0.1 | 2.43 ± 0.066 | 2.25 ± 0.066 | 2.24 ± 0.088
29 | LTTQFVTDKYTAKKTNR [YDL088C/ASM4] | 2.74 ± 0.14 | 2.83 ± 0.093 | 2.8 ± 0.11 | 
30 | IPVGLMAQENSMERKVQ [MCD1] |  | 3.38 ± 0.29 | 3.19 ± 0.1 | 
31 | ATGISGSVSEETELFEP [ECM29] | 3.22 ± 0.083 | 3.16 ± 0.054 | 3.04 ± 0.067 | 3 ± 0.08
32 | LNSFVNDIFERIATEAS [HTB1] | 2.95 ± 0.11 | 2.89 ± 0.091 | 2.96 ± 0.061 | 2.63 ± 0.1
33 | KIRITLTSTKVKQLENV [RPS20] | 1.77 ± 0.076 | 2.11 ± 0.12 | 2.25 ± 0.068 | 1.94 ± 0.11
34 | VEYLTRYVAGVQQRYTQ [PRE6] | 1.47 ± 0.065 | 1.89 ± 0.086 | 1.66 ± 0.1 | 1.65 ± 0.09
35 | QGKHTKFENDELAESTT [LRP1] | 3.75 ± 0.23 | 2.88 ± 0.12 | 3.21 ± 0.077 | 3.12 ± 0.079
36 | LHKNFESENFKIIALQP [RGR1] | 2.56 ± 0.076 | 2.62 ± 0.078 | 2.58 ± 0.073 | 2.7 ± 0.06
37 | SEAKRTKFSNPAIPPVI [BRR2] | 2.13 ± 0.06 | 2.25 ± 0.054 | 2.44 ± 0.056 | 2.45 ± 0.067
38 | EKGKKVTGFKDEVLETV [RPS1A] | 1.32 ± 0.13 | 1.31 ± 0.1 | 1.37 ± 0.1 | 
39 | VKDLGQGLKLAKKHKLN [SMC3] | 3.12 ± 0.11 | 2.92 ± 0.13 | 2.81 ± 0.068 | 2.83 ± 0.097
40 | DNVQANDPAREKFSSFI [SNF12] | 2.94 ± 0.11 | 3.01 ± 0.086 | 3.11 ± 0.043 | 3.1 ± 0.069
41 | TFLPPLLLKLASPHASV [ECM29] | 1.63 ± 0.039 | 1.8 ± 0.04 | 1.41 ± 0.027 | 1.66 ± 0.061
42 | SYDCTGVNELAPIPKGR [POP1] | 2.84 ± 0.061 | 2.79 ± 0.057 | 3 ± 0.042 | 3.01 ± 0.055
43 | MEDVKIQKEEEPENNTV [SWI3] | 3.31 ± 0.11 | 3.35 ± 0.073 | 3.41 ± 0.057 | 3.41 ± 0.058
44 | SGSQNISEFDSFTDILK [RPN12] | 3.37 ± 0.17 | 3.12 ± 0.09 | 3.03 ± 0.066 | 3 ± 0.099
45 | NINEVKKASDLVDTPSN [NUT1] | 3.14 ± 0.083 | 2.97 ± 0.085 | 3.27 ± 0.07 | 3.23 ± 0.065
46 | LLIIRSLKNTDALLNST [YJL039C/NUP192] | 2.97 ± 0.086 | 3 ± 0.096 | 2.45 ± 0.15 | 2.37 ± 0.14
47 | QGRFRGNLSGKRVDFSG [RPO31] | 3.36 ± 0.099 | 2.12 ± 0.11 | 2.56 ± 0.12 | 2.76 ± 0.1
48 | MDNPRKLSKILRTEYGW [SNU114] | 3.11 ± 0.068 | 2.99 ± 0.081 | 2.94 ± 0.066 | 2.91 ± 0.059
49 | TFIYFAYFLIIVPVIST [COB] | 1.68 ± 0.05 | 1.3 ± 0.046 | 1.1 ± 0.027 | 1.16 ± 0.087
50 | IRSSSVSLVAEATSNTN [MED4] | 1.89 ± 0.076 | 1.63 ± 0.061 | 1.33 ± 0.036 | 2.12 ± 0.098
51 | HIKKLLHQYYGDDESKI [FAS1] | 2.24 ± 0.084 | 2.9 ± 0.085 | 3 ± 0.12 | 3.07 ± 0.074
52 | SQLPITPMTRISELPPQ [YGL172W/NUP49] | 2.35 ± 0.057 | 2.67 ± 0.047 | 2.71 ± 0.041 | 2.13 ± 0.051
53 | NDINISSIENNINNNIN [MED2] | 2.87 ± 0.044 | 3 ± 0.047 | 3.11 ± 0.039 | 2.86 ± 0.041
